According to the supplement of paper PMC12764529:
± gives the half width of the 95% confidence interval.

Legend:
[1] = folding stability dG unfold from chymotrypsin proteolysis; higher = more stable
Procedure, shortened: (§1)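 Digests were run with trypsin and chymotrypsin at 11 concentrations in threefold dilutions, plus a no-protease condition, on designed mini-proteins in a PA-tagged cDNA display construct. The mini-proteins were under 80 residues, had no cysteine, and were kept only when AlphaFold2 dimer inter-PAE was above 15. After sequencing, Bayesian fitting of the counts gave K50, from which unfolding free energy was derived against a sequence-predicted unfolded-state K50 and a shared folded-state K50, per protease or combined.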

[2] = folding stability dG unfold from trypsin proteolysis; higher = more stable
Procedure, shortened: as §1

[3] = folding stability dG unfold (combined trypsin and chymotrypsin); higher = more stable
Procedure, shortened: as §1

Sequence	folding stability dG unfold [1] [kcal/mol]	folding stability dG unfold [2] [kcal/mol]	folding stability dG unfold [3] [kcal/mol]
SAGGSAGGSAGIEKTKDGVYKITIYNPSTGKKTEIYVPSSAPYVAGPVVLELVKNKAIIESAGGSAGGSAGG [r11_538_TrMRF]	0.802 ± 0.11	-0.296 ± 0.074	0.47 ± 0.055
SAGGSAGGSEPVVLTLPTPRGGRITITYDPSSNTATVTLPDGTVVTLSVTSVAEAKAAALAALSAGGSAGGS [r12_866_JUSTAS]	3.698 ± 0.018	3.18 ± 0.04	3.515 ± 0.025
SAGGSAGGSAGKPIPYRITLETETTRAVFTIPADVPLEKVVEIAREIRELYPAPFSIEPSSAGGSAGGSAGG [r11_515_TrMRF]	-0.00667 ± 0.43	0.14 ± 0.21	0.197 ± 0.21
SAGGKLPKGAKIVSVEFDKETKEIRIKVEFYDKNGKLIKTIEKTIKIKPKPKLSEEEKKKLEEEKKKSAGGS [r16_697_TrROS_Hall]	1.46 ± 0.28	0.96 ± 0.18	1.65 ± 0.23
SLLENLKIEEIKEYTLPDGSPAIVIRFGDYTIVFNPGTGELRIYKGDKIIRTITIPFPIPDPNKPEDLAASA [r9_1065_TrMRF]	3.405 ± 0.034	3.22 ± 0.16	3.28 ± 0.084
SAGGSAGGSMKWTSIASYPHPDMVVHVIKFEGGGELTFPAPFEDLVEIAEKFDLDLEFTGDHPSAGGSAGGS [r12_676_TrMRF]	0.28 ± 0.11	0.45 ± 0.072	0.447 ± 0.11
SAGGSAMTPEEVREKAEEIAETLAAEAREAGYEVEVKAKVEGLPEKYARVTVELNGARVEVLIPLDSAGGSA [r15_432_TrMRF]	-0.311 ± 0.18	0.453 ± 0.059	0.125 ± 0.09
SAMKIKPVPDPVTGKTKYVIDFGDAEVVIYHFPNSYRIEVRKKPDNKTIVIEAKPNEIEEVLKELGLPASAG [r14_4_TrMRF]	1.85 ± 0.12	1.4 ± 0.12	1.86 ± 0.16
MTIEITIVAKTEEEAKEAAEELARKLAEELGLSEEELENLKIEVEKVEVTNEDGEKYYVVKIKIELPPEFKS [r1_81_TrROS_Hall]	3.61 ± 0.25	2.93 ± 0.38	3.25 ± 0.4
SAGGSAGGSAIKPGEKIKILVLVKDENGKEYLVKMEIEKLPDGKIKIKKVEIMSLEELKKLSAGGSAGGSAG [r3_212_TrROS_Hall]	2.38 ± 0.029	1.84 ± 0.043	2.2 ± 0.13
SAGMEVKITVEREEDGTLRITITVRPDMTPEELAALLEEELGLEVRVVRDEETGERVLEIEIPLPEELESAG [r5_742_TrROS_Hall]	2.16 ± 0.072	2.64 ± 0.12	2.39 ± 0.11
SAGGSAGGSAGGSRTIYEPVPPDVAGTRLITFTSPDSEPLSTRTVSVTPVPGGRGAVILGSAGGSAGGSAGG [r7_64_JUSTAS]	-0.918 ± 0.73	-0.735 ± 0.44	-0.599 ± 0.23
SMEEELPPKVTEVVVKVPLSPDASPEEIAAARALAAELAAALEAAGYRDVEVTVEPTEPGALVIRARVVVSA [r9_865_JUSTAS]	4.36 ± 0.057	2.79 ± 0.036	3.908 ± 0.034
SAGGMGTPFTTLTVTLEFPSSESLEEAKEKAEELAEELRRAHPEVVSIEIEVSKEGDTYKVKLTVTIASSAG [r5_446_JUSTAS]	4.72 ± 0.11	4.37 ± 0.22	4.7 ± 0.13
SAGGSAGGSMSLKGVKITEVTNPGGKVTITYTGDGVPQTITIPPAERALIEKLRESGDISFSPSAGGSAGGS [r12_604_JUSTAS]	0.579 ± 0.17	0.708 ± 0.043	0.743 ± 0.1
SAGGSAGGSAGGPPPGQKVTMWVIRIEIKIKLERTPDGKLKLKIEIKISIVFITIYAPDSAGGSAGGSAGGS [r10_297_TrROS]	4.87 ± 0.19	3.45 ± 0.13	4.6 ± 0.22
SAGGKKKKVKKVKVEVKVTVTLTIKLPKEKIKSKEEAEALAKKLLEELGIEGAKVKIEEKDGYLTLTFSAGG [r13_130_TrROS_Hall]	4.24 ± 0.2	2.66 ± 0.092	3.85 ± 0.39
SAGGSAGGSSPLIEKLRKDPNVTKIEIDTVKNTTYIYTPNKIYIINSKGEIEKVEEVSPEILKSAGGSAGGS [r12_895_JUSTAS]	2.36 ± 0.072	0.743 ± 0.067	1.81 ± 0.17
SAGGSYRVETTKTEVSEATAPDGTAYRVTTTTTVVTYPDGTRRTVTNVTITDPATGVPTSSTATTTAVSAGG [r13_133_JUSTAS]	2.056 ± 0.017	2.45 ± 0.048	2.25 ± 0.03
SAVLRIPNPITGEVRTLTLPTEVPAVSPDGVTSFRSPENLAAAIRALPSDVKVLSVVEHPDGTVTIVVDPSA [r9_997_TrMRF]	-0.414 ± 0.15	0.102 ± 0.059	-0.0685 ± 0.064
SAGGSAGGSAMTIVVKSEEEAKKLAELLNAEVVEEKDGYLTIKLEGMSEEERKKILELLKKSAGGSAGGSAG [r3_398_TrROS_Hall]	3.03 ± 0.17	1.96 ± 0.13	2.71 ± 0.11

Sequence	folding stability dG unfold [1] [kcal/mol]	folding stability dG unfold [2] [kcal/mol]	folding stability dG unfold [3] [kcal/mol]
SAGGSMVTLTTTETSVEGERTVEVSTLGSKTVTTTFEPESDSSTVTTSPVPPVAGPELLALNLLLLSAGGSA [r2_482_JUSTAS]	-0.102 ± 0.18	0.291 ± 0.079	0.189 ± 0.082
SAGGSAGGSAGGGSIVIENPEKGLTLTYDPATGNVTITFPGGERKVSPVGSIEKAKELLSAGGSAGGSAGGS [r10_849_JUSTAS]	1.15 ± 0.028	0.787 ± 0.059	1.02 ± 0.06
SAGGPEIRLRVRRPVRLTRRELLPDGTWRTLPARPGYEELEITFTGPEETARRLREELERLGYEVEEVSAGG [r13_452_TrMRF]	2.84 ± 0.066	1.76 ± 0.056	2.44 ± 0.12
SAGGSAGGSAGGKFEIVEVKEEYTLPNGKKVKVFTVKNKDTGKEITFIVDSNGNLKPYPSAGGSAGGSAGGS [r10_1123_TrROS_Hall]	2.602 ± 0.025	2.72 ± 0.13	2.65 ± 0.11
SAGGMNLMIKIENNGEPITFMINSPEDAEEIASNLPELGYPIEVKKLEPQRNEDGNPMVMVEIRIKPSAGGS [r8_336_TrROS]	1.63 ± 0.15	0.763 ± 0.14	1.21 ± 0.23
SAGGSSSLLEGLPGVVEVTVTTSLSVRPLSPEAARANPGQADRTVPLPRTTVTVTVEFPVSPAGILSAGGSA [r2_404_JUSTAS]	1.15 ± 0.067	0.509 ± 0.1	0.94 ± 0.15
SAGGSAGGSMPAGVLVTVTITITKPGKPETLDELDVTVAEGDLDALEEEFAEKYPGLEVTVVRSAGGSAGGS [r12_21_JUSTAS]	1.92 ± 0.089	0.818 ± 0.08	1.6 ± 0.1
SAVFIEVERDPGDGAYEVTIHYLIPLRPYKDPDGKQKPPVYFMIEITIRFSPNGQIRDLDIDIFPFDAPSAG [r14_246_TrROS]	4.41 ± 0.15	3.53 ± 0.13	4.28 ± 0.37
SAKKKVVELEIEIEVPPEDLTEEELKEKVLEALRKLFPDLKIKKIEIEVRVERKEDGSLKVTVKIKIEPSAG [r14_145_TrROS_Hall]	2.01 ± 0.14	3.03 ± 0.13	2.65 ± 0.28
SAGGMSVRFRFTDEDDRIHVDEIIPGEGIMRVVVEGEDRPLVFTIDAPPDAAIQLIRDLFDGPFEVEASAGG [r13_141_TrMRF]	0.849 ± 0.11	-0.187 ± 0.26	0.596 ± 0.095
SAGPKTITIWFRSPEWIRKLAKELGFEIKKVKRTGDYWSVEFTREGGKNIEIHIPDDALKELGFDLDDISAG [r5_12_TrROS]	2.28 ± 0.089	2.3 ± 0.044	2.25 ± 0.057
SAGGSAGGPEIRITEARRDPNGMFTFIVEIPPEDLDNIKPGEEIEITFNGQEFNFNVQIIPADDSAGGSAGG [r6_373_TrROS]	1.13 ± 0.2	0.257 ± 0.14	0.716 ± 0.29
SAGGMPTYTITITSPETGELKELPPNISQTFDPNNVTYYTFTSEEEAKEAIKLIAPQNGWKVTITSSSAGGS [r8_131_JUSTAS]	-0.14 ± 0.52	1.37 ± 0.22	0.89 ± 0.35
SAGGSAGGMKELAEKLGWEYEEKEEKLPSGKKILIATFTSPDGSKVIITFDPSTNKIISEEVFESAGGSAGG [r6_982_JUSTAS]	3.71 ± 0.23	4.28 ± 0.4	4.03 ± 0.25
SAGGSAGGSAGMIVVKSKEEIEALKKAGYEIEVKEVTVYDPKTGKKKDKFLVIEIKPKKKSAGGSAGGSAGG [r11_168_TrROS_Hall]	1.28 ± 0.06	1.25 ± 0.15	1.29 ± 0.17
SAGGSAGGSMKPGEKVKVEIVSYDEKTKELTIKITYGPKKTKTITIKPKTKEEALEQLKKLLKSAGGSAGGS [r20_167_TrROS_Hall]	3.14 ± 0.051	1.93 ± 0.17	2.6 ± 0.27
SAGGSAMKVEIVLKVPGDEMLDIEVDEEFPVVDQTIDKETGIVTVLLEGDPEKAEEIAKEIAEKLGSAGGSA [r15_662_TrMRF]	0.299 ± 0.044	0.6 ± 0.069	0.511 ± 0.1
SAGGVTIEVDPGTGKVTITFPDGSSATIEVPPDERAVLFVKEGEGEVEVALVREDDPEALEKALELGSAGGS [r16_623_TrMRF]	1.34 ± 0.058	0.811 ± 0.059	1.05 ± 0.2
SAGGSAGGMKAVITQPPDGTATVEIYDETTGKTTTKTIPADQPEEIEALIAGKVDEVTTTPAPASAGGSAGG [r6_640_JUSTAS]	1.35 ± 0.1	2.09 ± 0.12	1.76 ± 0.095
SAGGSAGGSMEIIGSFTFPNPNGMNIKVNVYRNPEEKKWWAKVEIWDGGKPKTHTMPLDDFLKSAGGSAGGS [r12_1063_TrROS]	2.06 ± 0.088	1.23 ± 0.042	1.73 ± 0.1
SAGGSAGGSAGGSGMVEVVSPDLSPEELKERIRKELGDPSVKVEVTTLSDGTQLARVPASAGGSAGGSAGGS [r4_408_JUSTAS]	-0.0859 ± 0.061	-1.74 ± 0.72	-0.365 ± 0.12
